Results on 2 molecules are retold here after article doi:10.1101/2025.11.07.687251, “Reconstitution of multistep recruitment of ULK1 to membranes in autophagy” (bioRxiv, 2025).

In experiment [1] the target is T1, mcherry-ATG13(1–230)/TSF-ATG101 (human, UniProt O75143 1-230; Q9BSB4 1-218).
T1 construct: ATG13, human; ATG101, human, wild type; TSF-tagged proteins in general were purified on Strep-Tactin Sepharose; also called mCherry-ATG13^HD:TSF-ATG101; mCherry-ATG13^HD:ATG101; not shown: mCherry, N-terminal, kept
T1 sequence (looked up) 1: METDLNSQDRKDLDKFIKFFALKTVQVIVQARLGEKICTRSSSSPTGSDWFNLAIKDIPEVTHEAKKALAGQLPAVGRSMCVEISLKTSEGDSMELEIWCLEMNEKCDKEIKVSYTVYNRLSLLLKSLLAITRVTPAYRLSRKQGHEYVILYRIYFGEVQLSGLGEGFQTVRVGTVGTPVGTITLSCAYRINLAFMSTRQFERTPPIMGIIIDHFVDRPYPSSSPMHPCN
T1 sequence (looked up) 2: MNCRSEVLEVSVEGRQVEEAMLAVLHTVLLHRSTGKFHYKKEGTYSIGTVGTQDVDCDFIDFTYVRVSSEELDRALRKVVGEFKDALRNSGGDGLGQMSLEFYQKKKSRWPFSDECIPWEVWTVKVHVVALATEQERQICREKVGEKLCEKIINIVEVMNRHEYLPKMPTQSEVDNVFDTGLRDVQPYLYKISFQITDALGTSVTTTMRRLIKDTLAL
Kind of experiment: pull-down; microscopy-based bead assay (Fig. 5e): GST-GFP-ULK1(415–464) (WT or ADA) as bait on GSH beads; mcherry-ATG13(1–230)/TSF-ATG101 as prey; mCherry channel quantified. The note with it: both partners purified.

Experiment [2] addresses T2, MBP-mCherry-ULK1(291–828) (human, UniProt O75385 291-828).
T2 construct: ULK1, human, intrinsically disordered region, residues 291-828 (no kinase domain, no EAT domain); also called mCherry-ULK1 ^ΔKDΔEAT (291–828); ULK1 IDR; source: purified (amylose resin); not shown: mCherry, N-terminal, kept
T2 sequence (looked up): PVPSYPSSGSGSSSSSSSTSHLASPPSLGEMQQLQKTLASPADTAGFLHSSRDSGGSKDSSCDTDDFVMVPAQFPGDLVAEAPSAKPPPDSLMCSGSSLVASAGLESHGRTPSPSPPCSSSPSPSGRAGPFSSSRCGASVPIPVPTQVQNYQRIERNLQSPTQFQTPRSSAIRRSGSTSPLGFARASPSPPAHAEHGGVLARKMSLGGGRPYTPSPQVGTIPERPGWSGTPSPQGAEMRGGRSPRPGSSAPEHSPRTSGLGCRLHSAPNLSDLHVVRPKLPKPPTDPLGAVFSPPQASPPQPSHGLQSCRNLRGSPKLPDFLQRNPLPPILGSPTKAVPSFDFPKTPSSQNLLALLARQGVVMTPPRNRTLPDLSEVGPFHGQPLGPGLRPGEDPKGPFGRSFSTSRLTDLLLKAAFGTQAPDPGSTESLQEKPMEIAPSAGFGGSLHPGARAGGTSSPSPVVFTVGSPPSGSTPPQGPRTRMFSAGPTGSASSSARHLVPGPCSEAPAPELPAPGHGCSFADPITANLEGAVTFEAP
Kind of experiment: pull-down; microscopy-based bead assay (Fig. S3): GST-ATG13(6–196)/ATG101 as bait on GSH beads; MBP-mCherry-ULK1 fragments added separately; mCherry on the beads imaged. Particulars: both partners purified.

B1: GST-GFP-ULK1(415–464) (domain or fragment, human, UniProt O75385 415-464, looked up)
chain: SGRAGPFSSSRCGASVPIPVPTQVQNYQRIERNLQSPTQFQTPRSSAIRR
notes: ULK1, human, IDR fragment with the PVP motif, residues 415-464; GST-tagged proteins in general were purified on GSH resin; also called GST-tagged fragment of the ULK1 IDR encompassing residues 415–464; not shown: GST, N-terminal, kept; GFP, N-terminal, kept
As to B1, in experiment [1], the binding result is reported as “binds”.

B2: GST-ATG13(6–196)/ATG101 (complex, human)
chain 1: NSQDRKDLDKFIKFFALKTVQVIVQARLGEKICTRSSSSPTGSDWFNLAIKDIPEVTHEAKKALAGQLPAVGRSMCVEISLKTSEGDSMELEIWCLEMNEKCDKEIKVSYTVYNRLSLLLKSLLAITRVTPAYRLSRKQGHEYVILYRIYFGEVQLSGLGEGFQTVRVGTVGTPVGTITLSCAYRINLAFM
chain 2: MNCRSEVLEVSVEGRQVEEAMLAVLHTVLLHRSTGKFHYKKEGTYSIGTVGTQDVDCDFIDFTYVRVSSEELDRALRKVVGEFKDALRNSGGDGLGQMSLEFYQKKKSRWPFSDECIPWEVWTVKVHVVALATEQERQICREKVGEKLCEKIINIVEVMNRHEYLPKMPTQSEVDNVFDTGLRDVQPYLYKISFQITDALGTSVTTTMRRLIKDTLAL
notes: ATG101, human, wild type; no tag is named; also called GST-ATG13^HD:ATG101; ATG13^HD:ATG101; source: HEK293T-GNTI- cells, transfected (PEI), purified (GSH resin, S200 SEC); not shown: GST, N-terminal, kept
For the molecule B2, the binding result in experiment [2] is recorded as “binds”.
